Molecular target: myc-tagged LIMP-2
Assay: cell-based or functional assay

post-ER form of GC (EndoH resistance) on co-expression of LIMP-2: 10 fold
Substance: wild-type β-glucocerebrosidase (GC), human, overexpressed in cells (from UniProt P04062 40-536) (enzyme)
